Assay: label from the status in PepcDB records
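Further: failed if final PepcDB status was selected cloned or expressed and not failed if soluble or beyond.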

Q: For “MDLIITFGLLTLVVLLEFIVVPAIILKRGTKFSTIYNYPIYIINSTEINAYSLTSVWGKFIVLTRGLVNGEDEEHIKAAIMHEVGHLKLNHHVKMSLYIISVIMVFTYLLGVNMLTLIPFALVALLVQRYLQRRLELGADRFALRFINKKMLEDLITKYDMKETTFLSTHPNIHVRLKNINE”, which protein production is on record?
A: failed

Q: Which protein production does the source give for “MPFINIKLVPENGGPTNEQKQQLIEGVSDLMVKVLNKNKASIVVIIDEVDSNNYGLGGESVHHLRQKN” here?
A: failed

Q: Which protein production does the source give for “MSLWQPLVLVLLVLGCCFAAPRQRQSTLVLFPGDLRTNLTDRQLAEEYLYRYGYTRVAEMRGESKSLGPALLLLQKQLSLPETGELDSATLKAMRTPRCGVPDLGRFQTFEGDLKWHHHNITYWIQNYSEDLPRAVIDDAFARAFALWSAVTPLTFTRVYSRDADIVIQFGVAEHGDGYPFDGKDGLLAHAFPPGPGIQGDAHFDDDELWSLGKGVVVPTRFGNADGAACHFPFIFEGRSYSACTTDGRSDGLPWCSTTANYDTDDRFGFCPSERLYTRDGNADGKPCQFPFIFQGQSYSACTTDGRSDGYRWCATTANYDRDKLFGFCPTRADSTVMGGNSAGELCVFPFTFLGKEYSTCTSEGRGDGRLWCATTSNFDSDKKWGFCPDQGYSLFLVAAHEFGHALGLDHSSVPEALMYPMYRFTEGPPLHKDDVNGIRHLYGPRPEPEPRPPTTTTPQPTAPPTVCPTGPPTVHPSERPTAGPTGPPSAGPTGPPTAGPSTATTVPLSPVDDACNVNIFDAIAEIGNQLYLFKDGKYWRFSEGRGSRPQGPFLIADKWPALPRKLDSVFEEPLSKKLFFFSGRQVWVYTGASVLGPRRLDKLGLGADVAQVTGALRSGRGKMLLFSGRRLWRFDVKAQMVDPRSASEVDRMFPGVPLDTHDVFQYREKAYFCQDRFYWRVSSRSELNQVDQVGYVTYDILQCPED” here?
A: not failed

Q: With “AKAPQKKHKVLLQQFNTGDERAQKRQPIRGSDEVLFKVYCMDHTYTTIRVPVATSVKEVISAVADKLGSGEGLIIVKMSSGGEKVVLKPNDVSVFTTLTINGRLFACPREQFDSLTPLPEQEGPTVGTVGTFELMSSKDLAYQMTIYDWELFNCVHELELIYHTFGRHNFKKTTANLDLFLRRFNEIQFWVVTEICLCSQLSKRVQLLKKFIKIAAHCKEYKNLNSFFAIVMGLSNVAVSRLALTWEKLPSKFKKFYAEFESLMDPSRNHRAYRLTVAKLEPPLIPFMPLLIKDMTFTHEGNKTFIDNLVNFEKMRMIANTARTVRYYRSQPFNPDAAQANKNHQDVRSYVRQLNVIDNQRTLSQMSHRLEPRRP” as the sequence, how does the protein production read?
A: failed

Q: With “MNDTPDDTFVSGYLLYLLAASSEEASAQFHDHIRAQGLRVPEWRVLACLVDNDAMMITRLAKLSLMEQSRMTRIVDQMDARGLVTRVADAKDKRRVRVRLTDDGRALAESLVASARAHETRLLSALADTDAARIKGVLRTLLDVLDRPRESR” as the sequence, how does the protein production read?
A: not failed

Q: For “MSEALSDSGLPPVQRVVTGHDAHGRAVFKSEDVTPTRMIPSGDASFLLVWTTATVPADNNDETDGRQREAGLTLDGGSVIRVVDMLPGKESPMHRTNSIDYGIVLEGEIELELDDGAKRTVRQGGIIVQRGTNHLWRNTTDKPCRIAFILIEAPAYLHNGQPLPEDKPDHK”, which protein production is on record?
A: not failed

Q: Which protein production does the source give for “KLIGITGMPGSGKSAITKLAEKYKIVVVSMGDVVRYETLKQGMPLNPENVGNTAVKLREIYGKEAIAVPCLNYVNEKYNNEDFVIIEGIRSIYEVNYIKKHAELDIIAIHSSPKTRFERLSGRNREDDSNDWNTFVERDERELNFSIGRVISLADYMVVNEGNYMDFVNDLENTFKKIINV” here?
A: failed

Q: For “MKLINTTWTHQELVNNQLDNTDAFLVETYSAGNTDVVFTQAPKHYELLISNKHRAVKDNELEVIREFFLKRKIDKDIVLMDKLRTVHTDKLIEISFPTTV”, which protein production is on record?
A: not failed

Q: For “MGPKRRQLTFREKSRIIQEVEENPDLRKGEIARRFNIPPSTLSTILKNKRAILASERKYGVASTCRKTNKLSPYDKLEGLLIAWFQQIRAAGLPVKGIILKEKALRIAEELGMDDFTASNGWLDRFRRRRS”, which protein production is on record?
A: not failed

Q: For “MSLSDRVKKIESFTLTLPRETPYLGKPRPGEEPNGRGYLVRKANRTVYPTFDRSVLVRIETENGAVGWGETYGLVAPRATMEIIDDLLADFTIGRDPFDAAAIHDDLYDLMRVRGYTGGFYVDALAAIDIALWDLAGKLAGLPVCKLLGGQRRDRIAAYISGLPEDTRAKRAELAAAWQAKGFSSFKFASPVADDGVAKEMEILRERLGPAVRIACDMHWAHTASEAVALIKAMEPHGLWFAEAPVRTEDIDGLARVAASVSTAIAVGEEWRTVHDMVPRVARRALAIVQPEMGHKGITQFMRIGAYAHVHHIKVIPHATIGAGIFLAASLQASAALANVDCHEFQHSIFEPNRRLLVGDMDCLNGEYVVPTGPGLGVEPSKEAQGLLKKHEGHHHHHH”, which protein production is on record?
A: not failed

Q: With “MVLQKLPLIGLLLLLTIVASPANADGPVCPPSNKLSRASFPEGFLFGTATAAYQVEGAINETCRGPALWDIYCRRYPERCNNDNGDVAVDFFHRYKEDIQLMKNLNTDAFRMSIAWPRIFPHGRKEKGVSQAGVQFYHDLIDELIKNGITPFVTVFHWDTPQDLEDEYGGFLSERIVKDFREYADFVFQEYGGKVKHWITFNEPWVFSHAGYDVGKKAPGRCSSYVNAKCQDGRSGYEAYLVTHNLLISHAEAVEAYRKCEKCKGGKIGIAHSPAWFEAHDLADSQDGASIDRALDFILGWHLDTTTFGDYPQIMKDIVGHRLPKFTTEQKAKLKASTDFVGLNYYTSVFSNHLEKPDPSKPRWMQDSLITWESKNAQNYAIGSKPLTAALNVYSRGFRSLLKYIKDKYANPEIMIMENGYGEELGASDSVAVGTADHNRKYYLQRHLLSMQEAVCIDKVNVTGYFVWSLLDNFEWQDGYKNRFGLYYVDFKNNLTRYEKESGKYYKDFLSQGVRPSALKKDEL” as the sequence, how does the protein production read?
A: failed

Q: Which protein production does the source give for “MKTVGVVLSGCGVLDGAEIHESVLTMLALDRAGAEVLFFAPDKPQLHVINHITGEIVAEERNVLVESARIARGLITPLSAADPEVLDALIVPGGFGAAKNLCDFAIKGGECSVEPDLYKLIQLMHKSGKPIGLMCISPVMLPKLLGKPIRLTIGNDPDTIDAIEIMGGEHVICPADDVVIDLENKVVTTPAYMLAGSISEAAKGIDKLVTKVLDLTE” here?
A: failed

Q: With “MNVFAFSISGGGSERSYKETEKTSAMTTTHSTKLQPSQAILFKMREDAPPLNLTEEMPPPFPTKANYLIHPVRLEHHHHHH” as the sequence, how does the protein production read?
A: failed

Q: For “MSARSLYQDTAVAALRDDLALALCAAAHHGLGEGVCNHFSVALPGQAGAFLLNPRGLMWSEVRAEDIVLVDAAGNKLAGRHEVEPTAMFIHAAIHQVAGKACVLHTHMPYATALTLTEARMLDTTLSQNAMRFHGRVAADRRYNGLALDAAEGERIARAMDGADIAFLGNHGVVVCGERIDYAFDDLYYLERACCAQVLAESSGRPLVPLDAALAASVAGQARSERLQSTLFFEALRRALGLEHHHHHH”, which protein production is on record?
A: failed

Q: For “MNLETKPIAETPNFIVLDQYEKIEQSGSYQSENRLEAELIADLQNQGYEYRKDLNSQSRLLENLRAQLQRLNDVAFSDGEWARFLTEYLDRPAENITDKTRKIHDDHIYDFAFDDGRLKNIYLLDKKNLARNHVQLINQFEQTGTHANRYDVTVLVNGLPLVQIELKKRGVAVREAFNQVHRYSKESFNSGNSLFKFLQIFVISNGTDTRYFANTTKRDKNSFDFTMNWARSDNHPIKDLKDFTATFLQKSVLLSVLLHYSVFDANDTLLIMRPYQIAAAERILWKINSSAQAKNWSGPESGGYVWHTTGSGKTLTGFKAARLATESAFIDKVFFVVDRKDLDYQTMKEYQRFSPDSVNGSESTAGLKRNLEKDGNKIIVTTIQKLNNLMKSEDNLPVYHRQVVFIFDECHRSQFGEAQKNLKKKFKKFCQFGFTGTPIFPENALGAETTAGVFGRELHSYVITDAIRDEKVLKFKVDYNDVRPQFKAVEAEQDEKELSAAENRQALLHPERIREITQYILSRFRQKTHRLNAGGKGFNAMFAVSSVDAAKCYYEAFKTQQAGSLHPLKTATIFSFAANEEQNAVGEIVDETFEPEAMDSSAKEFLQAAINDYNACFKTNFGTDSKAFQNYYRDLAKRVKNREVDLLIVVGMFLTGFDAPTLNTLFVDKNLRYHGLMQAFSRTNRIYDATKTFGNIVCFRDLEQATIDAITLFGDKNTKNVVLEKSYEEYMNGYTDSQTGEARRGYLDVAKELHERFPDPDKIETEKDKKDFAKLFGEYLRAENVLQNYDEFAALRELQNVDAADEDAMKAFQEKYYLSDEDVQEMRKVPMPSERAVQDYRSAYNDIRDWLRRQKAGEQKEQSKIDWDDVVFEVDLLKSQEINLDYILQLVFEHHKKIKGKAELVEEIRRIIRASIGHRAKEGLIVDFINDTDLDKVPDVPAILETFYTYAQEVMRHEAAGLIAAEGLNETAAKRYLTGSLKRGYASENGTELTETLPKMSPLNPQYLTKKQSVFQKIAAFVEKFAGIGADI”, which protein production is on record?
A: failed

Q: Which protein production does the source give for “MRFMFLHPRLSLEGDPLGLMQLSASLKQRGHIVGLTLLTEDYIEAIRSFQPDMLGVSLMSSDAVMMHQVLNKVRMVFPDLFIIVGGPHPTFDPSCLMVLPVNAICVGEGDEALVEALEQYGREGHVEGIRNVGTVTTPVTLRPLVSDLDDLPFIDRDIVYAKNHIVRDFPLKTFAASRGCHFKCTYCFNHAYNAMYAGLGHVVRRRSVDHLIAEMRDVIARYPTSYIKISDDSFTYRVDSWLEEFAEKYPRLIGLPFYCLLRADVVTRDMVRLLREAGCRSVCMSIEAGAETVRRDVLNRRVSNEKIIESFDLFNEAGIAIYTNSMLAMPRATLADDIATLDLNIRCRPTLGHFTIMAPFPGTRIHDMCEKDGILPERCGGDGDIPTSTGELSKLTTYTDEEKNIQKNIVLLGPLVIRFPVLRGVFLRCLAKLPSNNILFKCIYTVTKNLLFKRIVPVRMSPLLMLRIAIAQVKAARTQVG” here?
A: failed

Q: Which protein production does the source give for “MAKSRLLLSELLDQLSFALCIVRNDYVIVKVNEYFESRVIFDGETMQGKNILELFPESADYLKRKIDTALVIESSSFSSWEQKPHLLPFKSSRPVSGEEEQMYQNLEVIPIHSED” here?
A: failed

Q: Which protein production does the source give for “MQDKNFDKLAQKFAKNIYGTPKGEIRAAVLWRDLAPALAQFGDKKLRILDAGGGFGYFSQKLARLGHEVVLCDISAEMLAQAKEQIDASDTPLAIRLVHAPIQALSITEHGMFDLILCHAVVEWLADAKTTMEGLLTMLKPNGLFSLMFYNKEAMRFHALVSGNFDYVAADLKVKKKVRLTPTHPLYIHEVKLWFAQWQMALLKESGVRVIHDYLKKQQAADFDYQKLLSMELEYSQREPYISLGRYVHFLGQSTATHSELEHHHHHH” here?
A: not failed

Q: For “RGIIRLIKDNKSLTMKNTEVMLHGSSLAFDASTLEIYAALLNGACLSIIDKEDLIDSQTLKEKLKNDHVNRAFFTTPLFNSLCEQDPSVFNELEQVIIGGDRASNKHLKIVMKNSKKTQFYNGYGPTENTVFTTMHNIQYSELEGDIPIGKA”, which protein production is on record?
A: failed

Q: For “MRETIREIQKVAYWLAIKGLSEANAGNISVRLDERPEGYEVKSVNEYGFDYDGPEMYLLITATGSRMREVYEDDSKICLLHVLPGKHYEILHGNGKPTSEFPTHLMIHAKFKEMNPEKKAIVHTHPLNLLTLMNLEEFQELLPKMMKIHPEVLIFFPQGISVVEFEKPGSVELGLKTVEKSEGKDAVLWDKHGVVAFGKDVAEAYDRVEILEKAAEILLRVLSLGRNPTGVPEGWL”, which protein production is on record?
A: not failed

Q: Which protein production does the source give for “MKKRLSLDRRFLPYIKKAGGVLVKKQMGAYVSLAAAMAIVGSSVVVGKLMVERIPVFLSSGLRFLIASVVLLMLLFCIEKGFPALTKKDVFVLLVQSFTGVFLFSICLLYGVQYTTGTESGILTSTTPMLIGILSFFLLREKIEKKTLIGILLAVCGVMAINLFGAGSQDGTPHALFGNMLIIAAVIGEALFTLMAKLLSPHISALAISTFVSLFGFLFFLPFALFEASSFDYSVPTVLDWSYVLYYALFVTVLAFYLWYSGVTKVPAGVSGIFTSVLPVSAVILSGVILKEPFEFVHFIGIACVIGGIFVTVIKKKQPDAYPAAEEKTL” here?
A: failed

Source: a protein production outcome set (Wang et al. 2014)
